# Data published in patent US20230039401A1, “COMPOSITIONS AND METHODS FOR TREATING NRP2-ASSOCIATED DISEASES” (aTyr Pharma, Inc., priority 2018, published 2023).
# Tests used:
# [1] = tested on: LPS-induced leukocyte infiltration into the mouse lung; test: Murine model of LPS-induced pulmonary inflammation; type: in vivo; settings: single IV 3 mg/kg the day before LPS 10 μg/mouse; lavage 24 hours later
# Source text: This study was designed to investigate the in vivo potential of test compounds in a murine model of neutrophil accumulation in the lung induced by airway instillation of lipopolysaccharide (LPS).
# Treatment Regimen. Sixty-four (64) C57BL/6 mice (Jackson Laboratory, Bar Harbor, Me., USA, 8 week old females) were assigned to study groups of 8 mice, and housed in specific pathogen-free conditions with sterile food and water.
# In brief, animals received a single intravenous injection of the vehicle of Fc-HRS(2-60) (20 mM Histidine/125 mM NaCl/10 mM Methionine/3% Sucrose/0.02% PS20, pH 6.9), Fc-HRS(2-60) (1, 3, or 10 mg/kg), or HRS(2-60)-COMP (3 mg/kg). The following day, mice were anesthetized by isoflurane inhalation and, using a gavage needle and attached syringe, 50 μL of LPS (Sigma L3024, E. coli 0111-B4, 10 μg/mouse) formulated in PBS, or PBS alone, was delivered to the back of the oral soft palate for inhalation. […]
# Flow Cytometry Analysis. […] NRP2 was detected by addition of 25 μL of rabbit anti-mouse NRP2 (Cell Signaling Technology) at 10 μg/mL in FWB for 1 h in the dark on ice, and cells were then washed (data not shown). […]
# Using GraphPad Prism 7, results were analyzed by one-way ANOVA followed by Dunn's multiple comparison test using the LPS/Vehicle group as the comparator. […]
# [2] = tested on: murine bone marrow derived macrophages; test: Efferocytosis in bone marrow derived macrophages (pHrodo-loaded apoptotic jurkat cells); type: cell-based, mouse; settings: 100 nM for 5 days during monocyte differentiation
# Source text: This study was designed to investigate the in vivo potential of test compounds to modulate efferocytosis in murine bone marrow derived macrophages. Efferocytosis refers to the process by which dying/dead cells (e.g. apoptotic or necrotic cells) are removed by phagocytic cells. During efferocytosis, the cell membrane of phagocytic cells engulfs the apoptotic cell, forming a large fluid-filled vesicle containing the dead cell. Efferocytosis can be performed not only by ‘professional’ phagocytic cells such as macrophages or dendritic cells, but also by many other cell types including epithelial cells, fibroblasts and other cells. To distinguish them from living cells, apoptotic cells carry specific ‘eat me’ signals, such as the presence of phosphatidyl serine (resulting from phospholipid flip-flop) or calreticulin on the outer leaflet of the cell membrane. […] Like phagocytosis, acidification of the endosome, is a central aspect of endosome maturation, which can be readily monitored through the use of a pH sensitive probe, as described herein.
# Methods and protocol. […] Confocal images were captured in Zeiss 710 Confocal Laser Scanning Microscope equipped with 4 lasers and images were captured and analyzed using Zeiss Zen 2010 software. For quantification, the intensity of red fluorescence in each field were measured and the arithmetic mean was calculated and represented graphically.
molecule,measurement,setting,value
"HRS(2-60)-COMP: pentamer of HRS(2-60): HARS aa 2-60 fused to COMP pentameric domain (aa 28-73); made His tagged; SEQ ID NO:175 without tags (protein, His tag; Made in Lab - HRS-COMP Fusion Protein) ERAALEELVKLQGERVRGLKQQKASAELIEEEVAKLLKLKAQLGPDESKQKFVLKTPKGGGGSGGGGSSDLGPQMLRELQETNAALQDVRELLRQQVREITFLKNTVMECDAC",number of airway neutrophils accumulating in response to LPS,[1],significantly reduced
same,efferocytosis (spectral shift of pH sensitive dye),[2],profound inhibition of efferocytosis
